The test concerns the target N-terminal protein A (PA)-Renilla luciferase (RL)-ARFRP1 fusion protein (UniProt Q13795). Nature of the test: co-IP.
UniProt Q13795, sequence (Q13795 whole entry, the tested form may be a part): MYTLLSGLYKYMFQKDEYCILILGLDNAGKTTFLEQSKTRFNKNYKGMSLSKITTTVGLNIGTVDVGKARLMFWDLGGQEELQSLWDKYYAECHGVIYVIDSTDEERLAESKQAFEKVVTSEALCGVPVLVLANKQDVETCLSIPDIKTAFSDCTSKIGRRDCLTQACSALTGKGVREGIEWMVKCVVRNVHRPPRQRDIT

In the case of “V5-firefly luciferase (FL)-tagged VPS35 (from UniProt Q96QK1 1-796) (natural protein)”, the fold luciferase activity over control is 2.8 fold.

(Values after PMC7811047.)
